The results in this text go back to patent US20050008642A1.

A value given as a limit tells only on which side of the number the result lay.

For the test, the target named is IGF-IR on cells (HT29, NCI H322M human tumor cells; 3T3 cells transfected with IGF-IR) (human) (UniProt P08069). The test can be described thus: cell-based or functional assay.

The substance αIR3 (antibody) returned an Akt/PKB phosphorylation in the absence of IGF-I (Western blot) of more than 5 nM.
